Measured values from patent publication US20240141043A1.

How the values were obtained:
murine CD19 (mouse) [1] = biological target: murine CD19 (mouse) (UniProt P25918); assay: flow cytometry of mouse peripheral blood, Day 1 after i.v. injection of 50 ug anti-murine CD19-FITC, CD19-FITC in master mix [CONT'D) D]
murine CD19 (mouse) [2] = biological target: murine CD19 (mouse) (UniProt P25918); assay: flow cytometry of mouse peripheral blood, Day 8 after i.v. injection of 50 ug anti-murine CD19-FITC, CD19-FITC in master mix [CONT'D) D]
murine CD19 (mouse) [3] = biological target: murine CD19 (mouse) (UniProt P25918); assay: flow cytometry of mouse peripheral blood, 4hrs after i.v. injection of 50 ug anti-murine CD19-FITC, no CD19-FITC in master mix (injected antibody only) [CONT'D) D]
murine CD19 (mouse) [4] = biological target: murine CD19 (mouse) (UniProt P25918); assay: flow cytometry of mouse peripheral blood, Day 1 after i.v. injection of 50 ug anti-murine CD19-FITC, no CD19-FITC in master mix (injected antibody only) [CONT'D) D]
murine CD19 (mouse) [5] = biological target: murine CD19 (mouse) (UniProt P25918); assay: flow cytometry of mouse peripheral blood, 4hrs after i.v. injection of 50 ug anti-murine CD19-FITC, CD19-FITC in master mix [CONT'D) D]
murine CD19 (mouse) [6] = biological target: murine CD19 (mouse) (UniProt P25918); assay: flow cytometry of mouse peripheral blood, Day 5 after i.v. injection of 50 ug anti-murine CD19-FITC, no CD19-FITC in master mix (injected antibody only) [CONT'D) D]
murine CD19 (mouse) [7] = biological target: murine CD19 (mouse) (UniProt P25918); assay: flow cytometry of mouse peripheral blood, Day 5 after i.v. injection of 50 ug anti-murine CD19-FITC, CD19-FITC in master mix [CONT'D) D]
murine CD19 (mouse) [8] = biological target: murine CD19 (mouse) (UniProt P25918); assay: flow cytometry of mouse peripheral blood, Day 8 after i.v. injection of 50 ug anti-murine CD19-FITC, no CD19-FITC in master mix (injected antibody only) [CONT'D) D]

Chain of murine CD19 (mouse) (P25918 19-547): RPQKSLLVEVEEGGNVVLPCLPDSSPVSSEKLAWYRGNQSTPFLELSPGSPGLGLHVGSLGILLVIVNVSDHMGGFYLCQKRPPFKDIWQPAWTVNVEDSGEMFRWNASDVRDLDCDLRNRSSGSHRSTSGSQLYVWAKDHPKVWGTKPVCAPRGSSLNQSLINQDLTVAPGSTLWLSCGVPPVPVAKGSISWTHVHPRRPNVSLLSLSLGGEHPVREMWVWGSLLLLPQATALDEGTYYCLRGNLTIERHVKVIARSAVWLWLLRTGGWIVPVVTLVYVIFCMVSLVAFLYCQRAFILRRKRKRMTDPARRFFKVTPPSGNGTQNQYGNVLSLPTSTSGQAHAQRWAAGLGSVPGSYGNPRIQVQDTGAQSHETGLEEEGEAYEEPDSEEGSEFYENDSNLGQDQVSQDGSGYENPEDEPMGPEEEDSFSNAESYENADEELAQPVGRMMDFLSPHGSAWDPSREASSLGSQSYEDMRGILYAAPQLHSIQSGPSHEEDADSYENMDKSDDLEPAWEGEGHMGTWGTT

Substance: anti-murine CD19-FITC antibody (Biolegend; clone 1D3)
- CD19+CD20+ gate (share of cells in the gate) (murine CD19 (mouse) [1]): 52.3
- CD19+CD20+ gate (share of cells in the gate) (murine CD19 (mouse) [2]): 36.4
- CD19+CD20+ gate (share of cells in the gate) (murine CD19 (mouse) [3]): 52.7
- CD19+CD20+ gate (share of cells in the gate) (murine CD19 (mouse) [4]): 49.1
- CD19+CD20+ gate (share of cells in the gate) (murine CD19 (mouse) [5]): 53
- CD19+CD20+ gate (share of cells in the gate) (murine CD19 (mouse) [6]): 44
- CD19+CD20+ gate (share of cells in the gate) (murine CD19 (mouse) [7]): 43.6
- CD19+CD20+ gate (share of cells in the gate) (murine CD19 (mouse) [8]): 38.3
